Measured values from patent CN114835815A (NINGBO SAIPO BIOTECHNOLOGY CO LTD, dated 2022).

Tests used:
[1] = biological target: 人源PGI蛋白 (human pepsinogen I from human gastric mucosa, Lee Biosolutions, cat. 440-50) (human) (UniProt P0DJD8); experiment: indirect ELISA, human-derived PGI coated at 2 ug/mL, culture supernatant diluted 50-fold
[2] = biological target: T1, 重组PGI蛋白 (recombinant pepsinogen I protein, expressed in HEK293 cells) (Homo sapiens (Human), UniProt P0DJD9 16-388, limits assumed); experiment: indirect ELISA screen of hybridoma supernatants on coated recombinant PGI
T1 construct: Immunogen and ELISA coating antigen; also called PGI重组蛋白; 重组蛋白
T1 sequence (P0DJD9 other isoform, or with tags, fused parts or gaps limits assumed): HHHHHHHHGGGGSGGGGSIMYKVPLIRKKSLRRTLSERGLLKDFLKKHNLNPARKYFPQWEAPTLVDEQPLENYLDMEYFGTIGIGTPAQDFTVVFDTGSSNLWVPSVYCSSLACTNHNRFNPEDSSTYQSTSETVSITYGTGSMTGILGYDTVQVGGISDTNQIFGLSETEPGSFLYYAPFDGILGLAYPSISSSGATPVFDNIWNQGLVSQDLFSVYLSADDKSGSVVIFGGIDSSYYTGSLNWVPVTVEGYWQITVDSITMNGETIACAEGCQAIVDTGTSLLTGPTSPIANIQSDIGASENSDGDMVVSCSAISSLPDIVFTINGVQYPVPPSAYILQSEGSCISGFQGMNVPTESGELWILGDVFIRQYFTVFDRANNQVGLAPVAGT

Chain of UniProt P0DJD8 (P0DJD8 16-388): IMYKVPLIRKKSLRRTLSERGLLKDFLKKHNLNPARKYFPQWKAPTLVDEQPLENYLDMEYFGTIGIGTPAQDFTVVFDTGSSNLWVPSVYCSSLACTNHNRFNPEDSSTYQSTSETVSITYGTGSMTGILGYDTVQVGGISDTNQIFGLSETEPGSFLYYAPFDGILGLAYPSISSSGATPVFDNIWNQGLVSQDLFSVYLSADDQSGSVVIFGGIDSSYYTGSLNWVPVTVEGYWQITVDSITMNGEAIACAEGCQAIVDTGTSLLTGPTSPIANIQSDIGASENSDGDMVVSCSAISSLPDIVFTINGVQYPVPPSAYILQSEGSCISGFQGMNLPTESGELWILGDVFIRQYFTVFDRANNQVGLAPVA

Binder	OD450 [1]	binding result [2]
鼠单克隆抗体36A2 (antibody, V domains shown) VH: EIQLQQSGPELVKPGASVKVSCKASGYSFTDYNIYWVKQGHGESLEWIGYIDPYNGDTDYNQKFKDRSTLTVDKSSNTAFMHLNSLTSEDSAVYYCARSRNYYGSSFAYWGQGTLVTVSA VL: DVLMTQTPLSLPVSLGDQASISCRSSQAIVHGNGNTYLEWSLQKPVHSPKLLIFKVSNRFSGVPDRFSGSGSGTDFTLKISRVEAEDLGVYYCFQGSHVPPTFGGGTKLEIK	2.04 OD450	
鼠单克隆抗体3D9 (antibody, V domains shown, Mouse monoclonal antibody from a hybridoma; also called 第一单抗) VH: QVQLQQSGAELAKPGAAVKMSCKASGYTFTSHWMHWVNQRPGQGLEWIGYINPTTGYSEYNQKFKDKATMTADKSSSTAYMHLRSLTSEDSAVYYCARGAYYYGSSRFDYWGQGTTLTVSS VL: DVLMTQTPLSLPVSLGDQASISCRSSQTIVHTNGNTYLEWYLQKPGQSPKLLIYKVSNRFSGVPDRFSGSGSGTDFTLKISRVEAEDLGVYYCFQGSHVPWTFGGGTKLEIK	1.87 OD450	binds
